Measurements taken from the supplement of paper PMC10065799, “High-throughput profiling of sequence recognition by tyrosine kinases and SH2 domains using bacterial peptide display” (eLife, 2023).

Columns and labels:
SHP2-C SH2 = assay: SH2 binding enrichment of the phosphorylated peptide, bacterial display (enrichment ratio); higher = better substrate or ligand; peptides without Tyr show the background
c-Src SH2 = assay: as above
Grb2 SH2 = Grb2 SH2 (UniProt P62993); assay: as above
c-Src = assay: phosphorylation enrichment, bacterial display (enrichment ratio); higher = better substrate or ligand; peptides without Tyr show the background
EPHB1 = EPHB1 (UniProt P54762); assay: as above
Sequence of EPHB1 (P54762 whole entry, looked up): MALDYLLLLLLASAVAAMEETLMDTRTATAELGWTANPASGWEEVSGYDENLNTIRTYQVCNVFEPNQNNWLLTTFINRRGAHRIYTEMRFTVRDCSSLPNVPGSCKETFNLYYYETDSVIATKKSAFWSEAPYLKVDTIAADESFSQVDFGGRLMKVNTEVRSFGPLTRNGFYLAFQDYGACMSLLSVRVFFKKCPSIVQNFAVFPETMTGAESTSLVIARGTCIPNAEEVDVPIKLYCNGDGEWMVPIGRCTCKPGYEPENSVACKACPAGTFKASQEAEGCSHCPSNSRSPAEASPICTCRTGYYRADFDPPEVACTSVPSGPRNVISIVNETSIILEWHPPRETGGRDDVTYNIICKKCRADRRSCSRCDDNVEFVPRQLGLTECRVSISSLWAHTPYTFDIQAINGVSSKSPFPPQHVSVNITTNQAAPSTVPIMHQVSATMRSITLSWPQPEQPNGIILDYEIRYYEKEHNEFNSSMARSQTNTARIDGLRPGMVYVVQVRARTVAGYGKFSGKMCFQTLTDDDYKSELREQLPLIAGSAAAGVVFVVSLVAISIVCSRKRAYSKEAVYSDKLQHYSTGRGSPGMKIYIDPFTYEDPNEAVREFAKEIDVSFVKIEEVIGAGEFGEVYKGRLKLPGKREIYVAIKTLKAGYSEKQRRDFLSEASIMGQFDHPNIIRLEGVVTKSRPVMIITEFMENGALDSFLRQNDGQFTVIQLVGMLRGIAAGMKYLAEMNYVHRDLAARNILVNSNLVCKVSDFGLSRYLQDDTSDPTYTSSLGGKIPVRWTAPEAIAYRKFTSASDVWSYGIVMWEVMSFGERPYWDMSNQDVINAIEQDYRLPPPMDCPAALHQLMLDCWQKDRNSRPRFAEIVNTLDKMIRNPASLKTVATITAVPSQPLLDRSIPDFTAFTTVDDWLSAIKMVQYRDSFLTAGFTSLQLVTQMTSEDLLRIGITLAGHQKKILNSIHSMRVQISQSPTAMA

FGFR1 = FGFR1 (UniProt P11362); assay: as above
Sequence of FGFR1 (P11362 whole entry, looked up): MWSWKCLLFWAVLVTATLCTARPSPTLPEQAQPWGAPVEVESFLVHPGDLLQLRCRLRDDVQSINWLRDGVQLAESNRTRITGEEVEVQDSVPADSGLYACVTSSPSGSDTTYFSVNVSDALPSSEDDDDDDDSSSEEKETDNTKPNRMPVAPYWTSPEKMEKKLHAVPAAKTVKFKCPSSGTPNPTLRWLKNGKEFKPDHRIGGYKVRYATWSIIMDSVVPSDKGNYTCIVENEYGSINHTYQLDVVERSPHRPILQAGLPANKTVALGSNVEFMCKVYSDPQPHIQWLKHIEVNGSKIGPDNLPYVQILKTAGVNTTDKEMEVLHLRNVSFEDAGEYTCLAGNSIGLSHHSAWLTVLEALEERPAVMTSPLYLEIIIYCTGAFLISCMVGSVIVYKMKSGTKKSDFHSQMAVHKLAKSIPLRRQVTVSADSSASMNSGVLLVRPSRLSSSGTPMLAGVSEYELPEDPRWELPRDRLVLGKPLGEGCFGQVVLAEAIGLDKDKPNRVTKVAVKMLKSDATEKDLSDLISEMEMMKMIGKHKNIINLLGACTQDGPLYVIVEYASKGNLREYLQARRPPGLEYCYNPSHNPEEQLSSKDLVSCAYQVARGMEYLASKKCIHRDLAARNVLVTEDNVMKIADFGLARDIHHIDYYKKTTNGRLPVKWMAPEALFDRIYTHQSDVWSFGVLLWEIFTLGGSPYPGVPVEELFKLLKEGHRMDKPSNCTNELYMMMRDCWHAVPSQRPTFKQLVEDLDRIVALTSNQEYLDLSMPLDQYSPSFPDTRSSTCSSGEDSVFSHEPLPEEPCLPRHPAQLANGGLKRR

Jak2 = Jak2 (UniProt O60674); assay: as above
c-Abl (mouse) = assay: as above
EPHB2 = EPHB2 (UniProt P29323); assay: as above
FGFR3 = FGFR3 (UniProt P22607); assay: as above
Sequence of FGFR3 (P22607 whole entry, looked up): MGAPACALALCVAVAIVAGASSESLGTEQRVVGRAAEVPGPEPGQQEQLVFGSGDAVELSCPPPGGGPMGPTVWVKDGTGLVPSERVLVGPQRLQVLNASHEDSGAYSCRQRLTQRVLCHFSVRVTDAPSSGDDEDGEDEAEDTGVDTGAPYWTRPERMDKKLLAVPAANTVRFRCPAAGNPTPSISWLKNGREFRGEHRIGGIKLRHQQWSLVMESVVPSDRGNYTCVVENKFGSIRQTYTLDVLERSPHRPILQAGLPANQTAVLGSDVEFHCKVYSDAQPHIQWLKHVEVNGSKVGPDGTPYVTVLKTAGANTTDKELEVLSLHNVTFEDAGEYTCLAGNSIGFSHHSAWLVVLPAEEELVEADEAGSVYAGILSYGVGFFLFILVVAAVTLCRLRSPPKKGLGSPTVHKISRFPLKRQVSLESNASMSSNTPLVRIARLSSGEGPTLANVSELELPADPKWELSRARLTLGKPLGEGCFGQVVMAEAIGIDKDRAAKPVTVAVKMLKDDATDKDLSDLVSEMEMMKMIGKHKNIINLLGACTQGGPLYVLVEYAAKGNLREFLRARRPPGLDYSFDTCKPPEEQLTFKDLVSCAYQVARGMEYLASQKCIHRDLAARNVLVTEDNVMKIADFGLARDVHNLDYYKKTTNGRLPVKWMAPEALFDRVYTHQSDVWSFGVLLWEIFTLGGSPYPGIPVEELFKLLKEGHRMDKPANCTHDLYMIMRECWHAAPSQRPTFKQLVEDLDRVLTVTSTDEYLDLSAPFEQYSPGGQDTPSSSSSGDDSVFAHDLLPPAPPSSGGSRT

AncSZ = assay: as above
Hck = Hck (UniProt P08631); assay: as above
Sequence of Hck (P08631 whole entry, looked up): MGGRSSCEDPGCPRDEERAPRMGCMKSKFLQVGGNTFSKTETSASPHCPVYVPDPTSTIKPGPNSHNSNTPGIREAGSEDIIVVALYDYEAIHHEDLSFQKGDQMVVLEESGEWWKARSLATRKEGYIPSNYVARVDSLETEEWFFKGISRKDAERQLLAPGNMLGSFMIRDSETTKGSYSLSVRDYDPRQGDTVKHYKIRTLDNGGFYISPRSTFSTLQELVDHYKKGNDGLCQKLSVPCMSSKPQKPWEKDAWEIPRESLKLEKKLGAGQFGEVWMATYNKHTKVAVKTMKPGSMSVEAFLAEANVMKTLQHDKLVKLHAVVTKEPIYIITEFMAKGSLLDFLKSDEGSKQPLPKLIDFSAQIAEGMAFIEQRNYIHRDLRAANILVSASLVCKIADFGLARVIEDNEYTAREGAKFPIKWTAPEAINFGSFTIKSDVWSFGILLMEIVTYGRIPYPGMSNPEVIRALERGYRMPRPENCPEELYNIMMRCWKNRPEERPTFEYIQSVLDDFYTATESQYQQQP

Fer (mouse) = assay: as above
Fes = Fes (UniProt P07332); assay: as above
Fyn = Fyn (UniProt P06241); assay: as above
Sequence of Fyn (P06241 whole entry, looked up): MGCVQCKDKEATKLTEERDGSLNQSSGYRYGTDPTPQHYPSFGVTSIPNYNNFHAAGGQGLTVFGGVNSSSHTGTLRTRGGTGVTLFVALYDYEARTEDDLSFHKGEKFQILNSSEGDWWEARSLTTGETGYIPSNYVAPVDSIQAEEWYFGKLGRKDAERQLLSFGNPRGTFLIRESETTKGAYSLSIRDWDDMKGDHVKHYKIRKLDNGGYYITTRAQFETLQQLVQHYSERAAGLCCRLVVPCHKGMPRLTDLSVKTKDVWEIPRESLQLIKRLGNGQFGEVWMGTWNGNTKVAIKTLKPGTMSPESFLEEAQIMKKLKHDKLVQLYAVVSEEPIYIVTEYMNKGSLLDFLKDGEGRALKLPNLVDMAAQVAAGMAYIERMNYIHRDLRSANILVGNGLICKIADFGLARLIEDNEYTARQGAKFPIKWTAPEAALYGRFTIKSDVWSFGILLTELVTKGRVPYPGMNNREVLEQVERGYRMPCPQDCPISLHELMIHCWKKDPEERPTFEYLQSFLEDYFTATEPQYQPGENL

MERTK = MERTK (UniProt Q12866); assay: as above
Sequence of MERTK (Q12866 whole entry, looked up, the tested form may be a part): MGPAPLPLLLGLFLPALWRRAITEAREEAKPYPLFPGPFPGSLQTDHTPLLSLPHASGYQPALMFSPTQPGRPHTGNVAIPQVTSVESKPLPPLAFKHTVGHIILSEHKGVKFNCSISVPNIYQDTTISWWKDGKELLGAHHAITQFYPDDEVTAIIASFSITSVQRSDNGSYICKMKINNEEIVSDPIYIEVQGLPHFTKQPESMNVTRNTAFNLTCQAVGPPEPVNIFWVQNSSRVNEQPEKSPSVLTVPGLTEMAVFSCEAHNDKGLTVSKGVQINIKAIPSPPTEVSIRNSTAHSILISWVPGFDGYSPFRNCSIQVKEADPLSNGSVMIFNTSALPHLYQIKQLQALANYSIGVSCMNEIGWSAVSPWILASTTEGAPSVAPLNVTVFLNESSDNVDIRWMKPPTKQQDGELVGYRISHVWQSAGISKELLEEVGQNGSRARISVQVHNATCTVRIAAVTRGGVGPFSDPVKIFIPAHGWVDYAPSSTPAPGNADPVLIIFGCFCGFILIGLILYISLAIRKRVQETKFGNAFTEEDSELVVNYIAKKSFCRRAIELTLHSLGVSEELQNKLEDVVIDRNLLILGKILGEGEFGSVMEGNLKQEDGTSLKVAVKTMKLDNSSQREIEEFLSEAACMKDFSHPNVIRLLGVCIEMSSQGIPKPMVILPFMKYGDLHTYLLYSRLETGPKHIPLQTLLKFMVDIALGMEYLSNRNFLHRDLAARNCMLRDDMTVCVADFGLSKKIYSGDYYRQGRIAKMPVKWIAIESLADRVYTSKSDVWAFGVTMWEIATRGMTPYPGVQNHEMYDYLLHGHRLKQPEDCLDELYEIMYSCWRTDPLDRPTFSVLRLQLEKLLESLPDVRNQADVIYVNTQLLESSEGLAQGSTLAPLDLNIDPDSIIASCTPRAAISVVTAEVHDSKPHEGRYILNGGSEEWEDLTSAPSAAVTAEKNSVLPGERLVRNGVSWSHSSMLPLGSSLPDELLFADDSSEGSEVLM
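Wherever SH2 binding enrichment of the phosphorylated peptide, bacterial display is given: peptide library displayed on the E. coli surface as eCPX fusions, selected cells deep-sequenced, score is each peptide's frequency after selection divided by its frequency in the input.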
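Wherever phosphorylation enrichment, bacterial display is given: 11-residue human phosphosite peptides and single-mutation variants displayed on the E. coli surface, counted by deep sequencing, each peptide's frequency after selection divided by its frequency in the unselected input library; frequency after pTyr selection over input frequency; kinase dosed for 20-30% of maximal phosphorylation in three min.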

SH2 binding enrichment (SHP2-C SH2)	SH2 binding enrichment (c-Src SH2)	SH2 binding enrichment (Grb2 SH2)	Sequence	phosphorylation enrichment (c-Src)	phosphorylation enrichment (EPHB1)	phosphorylation enrichment (FGFR1)	phosphorylation enrichment (Jak2)	phosphorylation enrichment (c-Abl (mouse))	phosphorylation enrichment (EPHB2)	phosphorylation enrichment (FGFR3)	phosphorylation enrichment (AncSZ)	phosphorylation enrichment (Hck)	phosphorylation enrichment (Fer (mouse))	phosphorylation enrichment (Fes)	phosphorylation enrichment (Fyn)	phosphorylation enrichment (MERTK)
0.456	0.399	0.475	FRRITYHNWRH [PDE6B_Y556_YF]	0.535	0.309	0.432	0.627	0.577	0.515	0.458	0.785	0.527	0.571	0.635	0.593	0.518
1.78	1.79	1.23	LNPFIYSLRNW [OR1A2_Y288]	8.69	1.52	0.644	1.34	4.13	0.819	1.1	2.05	6.49	2.28	1.73	7.05	4.23
0.557	0.507	0.769	FEEDPYLVVNP [MCM6_Y810_YF]	2.65	0.743	1.23	1.54	0.87	0.6	1.62	1.87	1.04	0.886	1.46	1.88	0.533
0.587	0.405	0.768	NWGSPYKSDGC [ZNF347_Y261_N264D]	0.397	0.486	0.562	0.673	0.723	0.51	0.522	0.864	0.442	0.394	0.864	0.4	0.345
0.635	0.6	0.846	VPVNGYQPVTA [ROR2_Y824_P828T]	0.309	0.392	0.375	0.494	0.516	0.414	0.535	0.492	0.348	0.336	0.535	0.541	0.392
0.677	0.672	0.937	TDTAAYEERVR [SPTB_Y474]	0.753	0.692	0.581	1.9	1.2	0.767	0.494	0.931	0.686	0.407	1.25	0.795	1.2
0.955	1.16	0.983	VATRWYQSPEL [CDKL5_Y177_R178Q]	0.443	0.508	0.88	0.566	0.512	0.774	0.754	1	0.578	0.531	0.832	0.43	0.679
1.58	8.56	0.656	AIGYEYSEINI [SIGLEC12_Y588]	2.03	0.797	5.67	0.987	0.9	0.562	3.56	1.44	2.3	6.47	0.999	1.11	0.492
